# No end group written: not given here. MDA = malondialdehyde
# B1: peptide SEQ ID NO: 2 MDA-conjugated (peptide)
# peptide: RLTRK(MDA)RGLKLA
# B2: peptide SEQ ID NO: 3 (peptide)
# peptide: ALSLSNKFVEG
# B3: peptide SEQ ID NO: 2 (peptide)
# peptide: RLTRKRGLKLA
# B4: multiple antigenic peptide SEQ ID NO: 1 MDA-conjugated (mapped peptide) (peptide)
# peptide: ALQYKLEGTTR
# modifications: also: multiple antigenic peptide, branching core and copy number not given here, MDA-conjugated, site not given here
# B5: peptide SEQ ID NO: 1 MDA-conjugated (peptide)
# peptide: ALQYK(MDA)LEGTTR
# modifications: not fully specified
# B6: peptide SEQ ID NO: 3 MDA-conjugated (peptide)
# peptide: ALSLSNK(MDA)FVEG
# Target: scavenger LDL receptor in monocytes
# Experiment: cell-based or functional assay
row,Binder,"Mean fluorescence (Ex 520 nm, Em 590 nm) of DiI-labelled oxidised LDL (50 ug) taken up by lipid-starved U937 monocytes with 500 ug peptide as competitor; oxidised LDL alone 3433, Control 1657"
1,B1,2450 fluorescence (unit not printed)
2,B2,1760 fluorescence (unit not printed)
3,B3,1410 fluorescence (unit not printed)
4,B4,2610 fluorescence (unit not printed)
5,B5,2130 fluorescence (unit not printed)
6,B6,2000 fluorescence (unit not printed)

# From patent publication US20060148055A1 (published 2006)
